For the assay, the target named is SARS-CoV-2 spike receptor-binding domain (RBD) (SARS-CoV-2, UniProt P0DTC2 319-541).

B1: AB-009747 (antibody, V domains shown)
VH: QVQLVESGGGVVQPGGSLRLSCAASGFTFSNYGMHWVRQAPGKGLEWVAFIRYDGSNEYYADSVKGRFTISRDNSKNTLYLHMNSLRPEDTAVYYCAKQGLLSNYYYGMDVWGQGTTVTVSS
VL: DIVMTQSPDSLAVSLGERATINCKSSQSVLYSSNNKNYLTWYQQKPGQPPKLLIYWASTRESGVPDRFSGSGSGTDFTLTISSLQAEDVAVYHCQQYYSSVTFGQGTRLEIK
B1 yielded a Kd of 9.8 nM and a kon of 108000 M⁻¹ s⁻¹.

Source of the values: patent US20240327505A1 (published 2024).
